The text below walks through data of paper PMC3273627.

Read-outs that look alike come from different tables or passages of the source.

Experiment [1] deals with actin filaments (UniProt P68135). In words: co-sedimentation.
For experiment [2], the target named is Actin (Oryctolagus cuniculus) (UniProt P68135). The note with it: cited from earlier work.
Experiment [3] has the same target. To be noted: cited from earlier work. This is another data set of the same source.
Experiment [4] has as its target actin filaments (UniProt P68135). In words: co-sedimentation. The source holds these as a separate data set.

The Kd is a measure of binding affinity in units of concentration. For the substance DP260 isoform of dystrophin, the Kd with actin filaments [1] stood at 6850 nM.

As for Dystrophin (from UniProt P11531), the Kd in experiment [2] is 300 nM.

On to “Dystrophin DysN-R17 (from UniProt P11531)”, for which the Kd in experiment [3] was 760 nM.

With full-length dystrophin, P11531 1-3678, the figures for the Kd with actin filaments [1] and with actin filaments [4] were 110 nM and 152 nM, respectively.
